T1: HTRA3, P83110
T1 sequence (P83110 354-453, limits assumed, looked up): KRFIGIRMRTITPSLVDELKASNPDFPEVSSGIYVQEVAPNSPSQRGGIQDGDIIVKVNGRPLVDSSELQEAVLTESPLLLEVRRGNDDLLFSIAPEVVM

T2: DLG3_3, Q92796
T2 sequence (Q92796 374-475, limits assumed, looked up): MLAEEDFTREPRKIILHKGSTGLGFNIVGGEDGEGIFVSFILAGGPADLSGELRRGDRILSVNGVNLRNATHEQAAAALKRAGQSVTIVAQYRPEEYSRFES

T3: GRIP1_5, Q9Y3R0
T3 sequence (Q9Y3R0 568-668, limits assumed, looked up): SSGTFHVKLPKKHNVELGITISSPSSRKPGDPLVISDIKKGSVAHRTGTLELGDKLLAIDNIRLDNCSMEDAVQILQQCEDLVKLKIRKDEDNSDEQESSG

T4: DVL3, Q92997
T4 sequence (Q92997 244-331, limits assumed, looked up): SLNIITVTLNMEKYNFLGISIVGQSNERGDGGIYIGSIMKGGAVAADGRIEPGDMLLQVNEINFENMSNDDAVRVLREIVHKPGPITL

T5: FRMPD1, Q5SYB0
T5 sequence (Q5SYB0 52-145, limits assumed, looked up): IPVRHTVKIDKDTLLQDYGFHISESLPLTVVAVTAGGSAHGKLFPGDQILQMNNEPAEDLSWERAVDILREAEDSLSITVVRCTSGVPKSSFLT

T6: DFNB31_2, Q9P202
T6 sequence (Q9P202 274-371, limits assumed, looked up): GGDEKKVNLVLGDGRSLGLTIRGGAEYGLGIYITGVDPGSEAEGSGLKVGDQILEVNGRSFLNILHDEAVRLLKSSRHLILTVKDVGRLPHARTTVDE

T7: APBA1_1, Q02410
T7 sequence (Q02410 651-752, limits assumed, looked up): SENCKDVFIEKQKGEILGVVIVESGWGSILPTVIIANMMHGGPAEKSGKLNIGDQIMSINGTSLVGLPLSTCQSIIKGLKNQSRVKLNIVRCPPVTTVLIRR

T8: APBA1_2, Q02410
T8 sequence (Q02410 742-832, limits assumed, looked up): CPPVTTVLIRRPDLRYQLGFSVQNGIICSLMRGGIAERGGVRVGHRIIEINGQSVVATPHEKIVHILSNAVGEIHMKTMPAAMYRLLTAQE

T9: LNX2_2, Q8N448
T9 sequence (Q8N448 334-432, limits assumed, looked up): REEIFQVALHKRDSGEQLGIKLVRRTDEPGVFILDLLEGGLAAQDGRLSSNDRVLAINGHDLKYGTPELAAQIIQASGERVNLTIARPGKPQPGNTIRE


What was measured:
Assay in all cases: holdup assay
Parameters in all cases: key: below the threshold = too weak to quantify, mostly under pKd 3.1 to 4
Settings in all cases: plain residues with an end cap or a label only (N-terminal biotin on a linker: ado-ado)
[1] = target: T1, HTRA3, P83110
[2] = target: PTPN3, P26045
[3] = target: TJP1_3, Q07157
[4] = target: SCRIB_3, Q14160
[5] = target: Inadl_9, Q8NI35
[6] = target: GOPC, Q9HD26
[7] = target: TJP2_1, Q9UDY2
[8] = target: PDZRN4_1, Q6ZMN7
[9] = target: Inadl_10, Q8NI35
[10] = target: AHNAK1, Q09666
[11] = target: T2, DLG3_3, Q92796
[12] = target: T3, GRIP1_5, Q9Y3R0
[13] = target: Inadl_8, Q8NI35
[14] = target: T4, DVL3, Q92997
[15] = target: NOS1, P29475
[16] = target: T5, FRMPD1, Q5SYB0
[17] = target: T6, DFNB31_2, Q9P202
[18] = target: T7, APBA1_1, Q02410
[19] = target: Inadl_5, Q8NI35
[20] = target: SCRIB_1, Q14160
[21] = target: DLG1_2, Q12959
[22] = target: GRIP2_3, Q9C0E4
[23] = target: DLG1_3, Q12959
[24] = target: NHERF4_1, Q86UT5-2
[25] = target: FRMPD3, Q5JV73
[26] = target: T8, APBA1_2, Q02410
[27] = target: Inadl_4, Q8NI35
[28] = target: PDLIM1, O00151
[29] = target: T9, LNX2_2, Q8N448

Chain of SCRIB_1, Q14160 (Q14160 718-814): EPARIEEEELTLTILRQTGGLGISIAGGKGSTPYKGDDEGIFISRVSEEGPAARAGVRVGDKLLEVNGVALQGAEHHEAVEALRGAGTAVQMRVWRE
Chain of PDLIM1, O00151 (O00151 1-87): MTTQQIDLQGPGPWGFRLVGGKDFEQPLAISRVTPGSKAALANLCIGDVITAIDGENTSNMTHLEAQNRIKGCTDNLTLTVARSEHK
Chain of TJP2_1, Q9UDY2 (Q9UDY2 24-128): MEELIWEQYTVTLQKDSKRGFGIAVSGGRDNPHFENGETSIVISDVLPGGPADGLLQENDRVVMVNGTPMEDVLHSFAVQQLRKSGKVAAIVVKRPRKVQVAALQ
Chain of Inadl_4, Q8NI35 (Q8NI35 547-651): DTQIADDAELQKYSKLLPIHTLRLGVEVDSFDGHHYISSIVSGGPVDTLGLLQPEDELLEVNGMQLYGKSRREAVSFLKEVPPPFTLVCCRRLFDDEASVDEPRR
Chain of PTPN3, P26045 (P26045 505-587): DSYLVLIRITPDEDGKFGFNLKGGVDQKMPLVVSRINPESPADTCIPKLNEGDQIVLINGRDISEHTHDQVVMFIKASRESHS
Chain of Inadl_8, Q8NI35 (Q8NI35 1425-1530): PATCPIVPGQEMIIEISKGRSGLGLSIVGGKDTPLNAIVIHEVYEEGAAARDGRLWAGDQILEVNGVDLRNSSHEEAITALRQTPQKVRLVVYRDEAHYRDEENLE
Chain of PDZRN4_1, Q6ZMN7 (Q6ZMN7 213-318): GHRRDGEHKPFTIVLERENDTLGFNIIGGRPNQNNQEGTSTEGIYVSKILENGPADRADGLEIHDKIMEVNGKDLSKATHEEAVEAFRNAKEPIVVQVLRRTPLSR
Chain of NOS1, P29475 (P29475 9-101): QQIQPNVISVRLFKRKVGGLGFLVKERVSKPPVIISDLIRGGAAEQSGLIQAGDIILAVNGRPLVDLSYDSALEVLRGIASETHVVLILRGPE
Chain of Inadl_9, Q8NI35 (Q8NI35 1530-1615): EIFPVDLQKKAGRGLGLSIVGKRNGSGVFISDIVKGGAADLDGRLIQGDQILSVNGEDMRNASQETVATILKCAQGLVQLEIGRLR
Chain of FRMPD3, Q5JV73 (Q5JV73 12-100): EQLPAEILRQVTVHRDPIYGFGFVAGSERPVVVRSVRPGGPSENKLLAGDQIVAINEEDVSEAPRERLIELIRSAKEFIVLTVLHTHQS
Chain of Inadl_10, Q8NI35 (Q8NI35 1673-1763): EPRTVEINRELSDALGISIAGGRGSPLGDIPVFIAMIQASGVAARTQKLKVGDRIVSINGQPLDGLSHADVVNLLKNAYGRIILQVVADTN
Chain of DLG1_2, Q12959 (Q12959 314-412): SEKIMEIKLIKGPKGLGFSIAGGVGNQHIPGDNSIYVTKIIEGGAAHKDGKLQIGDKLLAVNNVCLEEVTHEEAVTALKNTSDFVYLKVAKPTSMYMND
Chain of GRIP2_3, Q9C0E4 (Q9C0E4 238-339): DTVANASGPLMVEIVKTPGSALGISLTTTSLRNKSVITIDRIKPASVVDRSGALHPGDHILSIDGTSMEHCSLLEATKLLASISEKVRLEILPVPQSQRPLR
Chain of AHNAK1, Q09666 (Q09666 4-100): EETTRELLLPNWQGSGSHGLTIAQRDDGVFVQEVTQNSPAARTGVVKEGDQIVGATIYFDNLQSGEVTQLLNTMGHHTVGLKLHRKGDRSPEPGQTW
Chain of TJP1_3, Q07157 (Q07157 416-512): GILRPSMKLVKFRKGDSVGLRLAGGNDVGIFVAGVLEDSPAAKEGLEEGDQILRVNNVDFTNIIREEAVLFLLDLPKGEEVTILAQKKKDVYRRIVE
Chain of Inadl_5, Q8NI35 (Q8NI35 673-780): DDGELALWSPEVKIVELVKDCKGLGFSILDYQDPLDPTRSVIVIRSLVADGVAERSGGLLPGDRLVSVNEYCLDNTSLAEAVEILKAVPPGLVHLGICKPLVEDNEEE
Chain of DLG1_3, Q12959 (Q12959 457-571): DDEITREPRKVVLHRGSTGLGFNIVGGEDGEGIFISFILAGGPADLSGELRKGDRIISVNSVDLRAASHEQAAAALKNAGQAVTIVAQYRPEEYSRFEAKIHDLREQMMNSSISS
Chain of NHERF4_1, Q86UT5-2 (Q86UT5 other isoform, or with tags, fused parts or gaps): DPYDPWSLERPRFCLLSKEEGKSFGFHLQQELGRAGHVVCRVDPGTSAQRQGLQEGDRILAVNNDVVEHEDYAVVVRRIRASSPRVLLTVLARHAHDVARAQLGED
Chain of SCRIB_3, Q14160 (Q14160 999-1103): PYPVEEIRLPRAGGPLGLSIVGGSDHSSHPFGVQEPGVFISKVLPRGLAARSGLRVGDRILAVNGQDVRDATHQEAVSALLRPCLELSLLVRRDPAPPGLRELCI

Binder	pKd [1]	pKd [2]	pKd [3]	pKd [4]	pKd [5]	pKd [6]	pKd [7]	pKd [8]	pKd [9]	pKd [10]	pKd [11]	pKd [12]	pKd [13]	pKd [14]	pKd [15]	pKd [16]	pKd [17]	pKd [18]	pKd [19]	pKd [20]	other results
LAHVKHKEQI [AQP3, Q92482]	below the threshold	below the threshold	below the threshold	below the threshold	below the threshold	below the threshold	below the threshold	below the threshold	below the threshold	below the threshold	below the threshold	below the threshold	below the threshold	below the threshold	below the threshold	below the threshold	below the threshold	below the threshold	below the threshold	below the threshold	pKd [21]: below the threshold; pKd [22]: below the threshold; pKd [23]: below the threshold; pKd [24]: below the threshold; pKd [25]: below the threshold; pKd [26]: below the threshold; pKd [27]: below the threshold; pKd [28]: below the threshold; pKd [29]: below the threshold
QSYPSKHDYV [CLDN18, P56856]	4.19	below the threshold	below the threshold	below the threshold	4.12	below the threshold	4.16	below the threshold	below the threshold	below the threshold	below the threshold	below the threshold	4.22	3.7	4.29	below the threshold	below the threshold	below the threshold	3.57	below the threshold	pKd [21]: 3.71; pKd [22]: below the threshold; pKd [23]: 3.49; pKd [24]: 3.81; pKd [25]: below the threshold; pKd [26]: 4.45; pKd [27]: below the threshold; pKd [28]: below the threshold; pKd [29]: 4.17
REEPDHSTEV [CCRL2, O00421]	3.48	4.79	3.48	4.35	4	3.56	below the threshold	4.17	below the threshold	below the threshold	3.6	below the threshold	below the threshold	3.48	below the threshold	below the threshold	below the threshold	below the threshold	below the threshold	4.03	pKd [21]: 4.77; pKd [22]: below the threshold; pKd [23]: below the threshold; pKd [24]: 3.53; pKd [25]: 3.6; pKd [26]: 3.9; pKd [27]: below the threshold; pKd [28]: 3.53; pKd [29]: 4.09

From article PMC9482650, “Quantitative fragmentomics allow affinity mapping of interactomes” (Nature Communications, 2022)
